In PMC3794917:

System: Rad51
Assay: EM
Details: RPA pre-bound to ssDNA, no Rad52, 60 mM NaCl; all filaments complete; Rad52 EMSA: 10 mM Tris-HCl pH 8, 5 mM MgCl2, 100 mM NaCl, 37 C, 10 min, 0.27 uM XV2, 8% native PAGE; filament assays: SEB buffer, 60 mM NaCl (or titrated) …

400-nt ssDNA fragment showed a binding signal (% of Rad51 filaments formed) of 12.5.
